Data from the supplement of paper PMC11246515.
± gives the standard deviation of the averaged measurements.

Assay: total protein half-life in vivo (active degradation + dilution); higher = more stable protein
[1] = wild type E. coli NCM3722, growth: C-lim chemostat, doubling time 3 h
[2] = E. coli NCM3722 delta-clpP delta-lon delta-hslV, growth: N-lim chemostat, doubling time 6 h
[3] = E. coli NCM3722 delta-clpP, growth: N-lim chemostat, doubling time 6 h
[4] = E. coli NCM3722 delta-hslV, growth: N-lim chemostat, doubling time 6 h
[5] = E. coli NCM3722 delta-lon, growth: N-lim chemostat, doubling time 6 h
[6] = E. coli NCM3722 delta-smpB, growth: N-lim chemostat, doubling time 6 h
[7] = wild type E. coli NCM3722, growth: C-lim chemostat, doubling time 12 h
[8] = wild type E. coli NCM3722, growth: N-lim chemostat, doubling time 6 h
[9] = wild type E. coli NCM3722, growth: N-lim chemostat, doubling time 12 h
[10] = wild type E. coli NCM3722, growth: P-lim chemostat, doubling time 6 h
[11] = wild type E. coli NCM3722, growth: P-lim chemostat, doubling time 12 h
[12] = wild type E. coli NCM3722, growth: C-lim chemostat, doubling time 6 h

Sequence	total protein half-life in vivo [1] [h]	total protein half-life in vivo [2] [h]	total protein half-life in vivo [3] [h]	total protein half-life in vivo [4] [h]	total protein half-life in vivo [5] [h]	total protein half-life in vivo [6] [h]	total protein half-life in vivo [7] [h]	total protein half-life in vivo [8] [h]	total protein half-life in vivo [9] [h]	total protein half-life in vivo [10] [h]	total protein half-life in vivo [11] [h]	total protein half-life in vivo [12] [h]
MSDQIIARVSQSLAKEQSLESLVRQLLEMLEMVTDMESTYLTKVDVEARLQHIMFARNSQKMYIPENFTVSWDYSLCKRAIDENCFFSDEVPDRWGDCIAARNLGITTFLSTPIHLPDGSFYGTLCAASSEKRQWSERAEQVLQLFAGLIAQYIQKEALVEQLREANAALIAQSYTDSLTGLPNRRAIFENLTTLFSLARHLNHKIMIAFIDLDNFKLINDRFGHNSGDLFLIQVGERLNTLQQNGEVIGRLGGDEFLVVSLNNENADISSLRERIQQQIRGEYHLGDVDLYYPGASLGIVEVDPETTDADSALHAADIAMYQEKKHKQKTPFVAHPALHS	0.233	–	–	–	–	–	–	–	–	–	–	–
MSDQQQPPVYKIALGIEYDGSKYYGWQRQNEVRSVQEKLEKALSQVANEPITVFCAGRTDAGVHGTGQVVHFETTALRKDAAWTLGVNANLPGDIAVRWVKTVPDDFHARFSATARRYRYIIYNHRLRPAVLSKGVTHFYEPLDAERMHRAAQCLLGENDFTSFRAVQCQSRTPWRNVMHINVTRHGPYVVVDIKANAFVHHMVRNIVGSLMEVGAHNQPESWIAELLAAKDRTLAAATAKAEGLYLVAVDYPDRYDLPKPPMGPLFLAD	–	5.48 ± 0.18	4.85 ± 0.48	3.92	5.08 ± 0.086	5.64 ± 0.47	11.8 ± 2.3	5.31 ± 0.53	8.71 ± 1.2	5.81 ± 0.58	11.6 ± 0.43	–
MSDTKRNTIGKFGLLSLTFAAVYSFNNVINNNIELGLASAPMFFLATIFYFIPFCLIIAEFVSLNKNSEAGVYAWVKSSLGGRWAFITAYTYWFVNLFFFTSLLPRVIAYASYAFLGYEYIMTPVATTIISMVLFAFSTWVSTNGAKMLGPITSVTSTLMLLLTLSYILLAGTALVGGVQPADAITVDAMIPNFNWAFLGVTTWIFMAAGGAESVAVYVNDVKGGSKSFVKVIILAGIFIGVLYSVSSVLINVFVSSKELKFTGGSVQVFHGMAAYFGLPEALMNRFVGLVSFTAMFGSLLMWTATPVKIFFSEIPEGIFGKKTVELNENGVPARAAWIQFLIVIPLMIIPMLGSNTVQDLMNTIINMTAAASMLPPLFIMLAYLNLRAKLDHLPRDFRMGSRRTGIIVVSMLIAIFAVGFVASTFPTGANILTIIFYNVGGIVIFLGFAWWKYSKYIKGLTAEERHIEATPASNVD	–	–	–	–	–	–	–	–	–	–	–	3.83
MSEALLNAGRQTLMLELQEASRLPERLGDDFVRAANIILHCEGKVVVSGIGKSGHIGKKIAATLASTGTPAFFVHPAEALHGDLGMIESRDVMLFISYSGGAKELDLIIPRLEDKSIALLAMTGKPTSPLGLAAKAVLDISVEREACPMHLAPTSSTVNTLMMGDALAMAVMQARGFNEEDFARSHPAGALGARLLNKVHHLMRRDDAIPQVALTASVMDAMLELSRTGLGLVAVCDAQQQVQGVFTDGDLRRWLVGGGALTTPVNEAMTVGGTTLQSQSRAIDAKEILMKRKITAAPVVDENGKLTGAINLQDFYQAGII	3.14 ± 0.043	5.02 ± 0.39	4.77 ± 0.57	4.52 ± 0.3	4.85 ± 0.39	4.33 ± 0.28	9.87 ± 2.3	4.55 ± 0.18	7.014 ± 0.018	5.2 ± 0.36	12.3 ± 0.49	5.34 ± 0.49
MSEFDAQRVAERIDIVLDILVAGDYHSAIHNLEILKAELLRQVAESTPDIPKAPWEI [A5A614]	–	> 8	–	–	–	2.71	–	–	–	3.58	–	3.77 ± 0.23
MSEFSQTVPELVAWARKNDFSISLPVDRLSFLLAVATLNGERLDGEMSEGELVDAFRHVSDAFEQTSETIGVRANNAINDMVRQRLLNRFTSEQAEGNAIYRLTPLGIGITDYYIRQREFSTLRLSMQLSIVAGELKRAADAAEEGGDEFHWHRNVYAPLKYSVAEIFDSIDLTQRLMDEQQQQVKDDIAQLLNKDWRAAISSCELLLSETSGTLRELQDTLEAAGDKLQANLLRIQDATMTHDDLHFVDRLVFDLQSKLDRIISWGQQSIDLWIGYDRHVHKFIRTAIDMDKNRVFAQRLRQSVQTYFDEPWALTYANADRLLDMRDEEMALRDEEVTGELPEDLEYEEFNEIREQLAAIIEEQLAVYKTRQVPLDLGLVVREYLSQYPRARHFDVARIVIDQAVRLGVAQADFTGLPAKWQPINDYGAKVQAHVIDKY	3.2 ± 0.06	5.86 ± 0.58	6.12 ± 0.39	5.79 ± 0.81	5.07 ± 0.54	5.246 ± 0.022	9.64 ± 0.19	5.36 ± 0.55	7.76 ± 0.8	5.7 ± 0.13	8.345 ± 0.032	5.42 ± 0.67
MSEGWNIAVLGATGAVGEALLETLAERQFPVGEIYALARNESAGEQLRFGGKTITVQDAAEFDWTQAQLAFFVAGKEATAAWVEEATNSGCLVIDSSGLFALEPDVPLVVPEVNPFVLTDYRNRNVIAVPDSLTSQLLAALKPLIDQGGLSRISVTSLISASAQGKKAVDALAGQSAKLLNGIPIDEEDFFGRQLAFNMLPLLPDSEGSVREERRIVDEVRKILQDEGLMISASVVQAPVFYGHAQMVNFEALRPLAAEEARDAFVQGEDIVLSEENEFPTQVGDASGTPHLSVGCVRNDYGMPEQVQFWSVADNVRFGGALMAVKIAEKLVQEYLY	3.02 ± 0.082	5.37 ± 0.42	4.6 ± 0.02	4.6 ± 0.11	4.9 ± 0.73	4.57 ± 0.048	9.85 ± 0.24	5.14 ± 0.59	8.99 ± 1.9	6.16 ± 0.097	11.9 ± 0.28	5.614 ± 0.008
MSEIKDVIVQGLWKNNSALVQLLGLCPLLAVTSTATNALGLGLATTLVLTLTNLTISTLRHWTPAEIRIPIYVMIIASVVSAVQMLINAYAFGLYQSLGIFIPLIVTNCIVVGRAEAFAAKKGPALSALDGFSIGMGATCAMFVLGSLREIIGNGTLFDGADALLGSWAKVLRVEIFHTDSPFLLAMLPPGAFIGLGLMLAGKYLIDERMKKRRAEAAAERALPNGETGNV	2.72 ± 0.066	2.66 ± 0.39	3.52	2.7	2.38 ± 0.21	4.72 ± 0.73	5.17	3.33	5.84 ± 1.2	3.64	–	–
MSEIVIRHAETRDYEAIRQIHAQPEVYCNTLQVPHPSDHMWQERLADRPGIKQLVACIDGDVVGHLTIDVQQRPRRSHVADFGICVDSRWKNRGVASALMREMIEMCDNWLRVDRIELTVFVDNAPAIKVYKKYGFEIEGTGKKYALRNGEYVDAYYMARVK	3.03 ± 0.086	4.84 ± 0.053	3.7 ± 0.65	4.09 ± 0.13	4.56 ± 0.45	3.82 ± 0.33	10.4 ± 0.85	3.91	6.73 ± 0.38	5.26 ± 0.41	11.3 ± 0.22	4.83 ± 0.18
